The target in test [1] is T1, IL-3Rα/GM-CSFRα chimeric protein, B domain of IL-3Rα replaced by that of GM-CSFRα, on HEK293T cells (human, UniProt P15509 115-213).
T1 construct: domain: B domain; The KpnI sites (GGTACC) at both junctions each encode an extra Gly-Thr; also called B domain substitution
T1 sequence: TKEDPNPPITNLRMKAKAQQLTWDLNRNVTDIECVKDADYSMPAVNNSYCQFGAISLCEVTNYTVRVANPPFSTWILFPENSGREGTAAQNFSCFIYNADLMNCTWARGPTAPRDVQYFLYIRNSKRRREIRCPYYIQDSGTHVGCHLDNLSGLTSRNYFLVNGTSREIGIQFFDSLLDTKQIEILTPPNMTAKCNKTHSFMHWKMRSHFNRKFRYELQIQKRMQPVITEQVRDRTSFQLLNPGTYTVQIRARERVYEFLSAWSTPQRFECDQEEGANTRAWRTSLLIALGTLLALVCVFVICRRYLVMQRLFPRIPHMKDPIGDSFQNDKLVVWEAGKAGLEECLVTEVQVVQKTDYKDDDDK
In words: flow cytometry, labelled antibody at 1 µg/ml, HEK293T cells expressing the construct. Here is the method:
(§1) HEK293T cell (ATCC CRL 1268) was used for the preparation of the IL-3Rα/GM-CSFRα chimeric protein expression cell. Using 293Fectin (Invitrogen), the plasmid DNA obtained in the above was introduced as an expression vector into the HEK293T. The HEK293T to which the expression vector was introduced was cultured using a shaker under conditions of 5% CO₂ and 37° C. after 2 days of the introduction, the […] was used for in the flow cytometry analysis.
(§2) From 100,000 to 1,000,000 cells of the chimeric protein expression cell were allowed to react for 30 minutes on ice with at a concentration of 1 μg/ml with an AlexaFlour488-labeled human antibody or a commercially available FITC-labeled anti-IL-3Rα mouse antibody (7G3 or 9F5: both from BD Biosciences, 6H6: Acris Antibodies, AC145: Milteny Biotech, 107D2.08: Dendritics). A staining medium (Dulbecco's PBS supplemented with 2% fetal bovine serum, 2 mM EDTA and 0.05% NaN₃) was used for the dilution of antibodies and cells. Next, the cells reacted with antibodies were washed three times with the staining medium and whether the labeled antibody bound to the cell was confirmed by flow cytometry.
Background: Flow cytometry measures light scatter and fluorescence of single cells or particles in a stream.

Test [2] has as its target T2, IL-3Rα/GM-CSFRα chimeric protein, A domain of IL-3Rα replaced by that of GM-CSFRα, on HEK293T cells (human, UniProt P15509 23-114).
T2 construct: domain: A domain; The KpnI site (GGTACC) at the junction encodes an extra Gly-Thr; also called A domain substitution
T2 sequence: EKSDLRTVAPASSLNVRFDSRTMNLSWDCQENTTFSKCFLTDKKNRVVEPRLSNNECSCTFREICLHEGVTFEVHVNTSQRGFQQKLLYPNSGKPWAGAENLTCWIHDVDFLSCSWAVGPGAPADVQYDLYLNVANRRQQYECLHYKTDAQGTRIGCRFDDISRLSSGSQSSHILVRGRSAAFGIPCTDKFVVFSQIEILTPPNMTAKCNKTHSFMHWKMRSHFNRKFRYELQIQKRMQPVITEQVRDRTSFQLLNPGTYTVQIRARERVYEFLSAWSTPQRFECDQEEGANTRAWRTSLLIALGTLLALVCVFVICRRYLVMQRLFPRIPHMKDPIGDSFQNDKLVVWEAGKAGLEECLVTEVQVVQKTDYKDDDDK
The description is as above. Here is the method:
as §1, §2

For test [3], the target named is T3, soluble form of human IL-3Rα protein (extracellular region with C-terminal FLAG tag) (human, UniProt P26951 19-305).
T3 construct: Made in CHOras1 cells, purified on anti-FLAG gel; also called soluble form of IL-3Rα protein; soluble form of human IL-3Rα extracellular region
T3 sequence: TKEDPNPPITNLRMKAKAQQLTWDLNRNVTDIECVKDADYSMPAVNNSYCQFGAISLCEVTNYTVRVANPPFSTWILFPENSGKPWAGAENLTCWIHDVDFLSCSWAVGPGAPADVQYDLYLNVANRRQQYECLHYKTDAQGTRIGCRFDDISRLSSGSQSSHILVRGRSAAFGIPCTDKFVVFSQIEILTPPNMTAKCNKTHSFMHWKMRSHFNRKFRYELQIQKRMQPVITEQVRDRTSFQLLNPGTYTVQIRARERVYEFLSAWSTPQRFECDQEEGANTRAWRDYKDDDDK
In words: SPR (Biacore 2000): antibody captured on anti-human antibody CM5 chip, soluble IL-3Rα as analyte, 1:1 Langmuir fit. Here is the method: Specifically, CM5 (research grade) was used for a sensor tip (each GE). Firstly, the CM5 tip was activated by applying an equivalent mixture of 400 mM EDC (N-ethyl-N′-(3-dimethylaminopropyl)carbodiimidehydrochloride) and 100 mM NHS (N-hydroxysuccinimide) to the CM5 tip. Next, an antibody to the human antibody attached to the Human Antibody Capture Kit (GE) (hereinafter, referred to as anti-human antibody antibody) was diluted with the solution attached to the kit and applied thereto, thereby immobilizing the required amount of the anti-human antibody antibody to the CM5 tip. Regarding the mouse antibody to be used as a control, an antibody to the mouse antibody attached to the Mouse Antibody Capture Kit (GE) (hereinafter, referred to as anti-mouse antibody antibody) was diluted with the solution attached to the kit and applied thereto, thereby immobilizing a necessary amount thereof to the CM5 tip. Next, the surface of the activated tip was blocked and inactivated by applying 1 M of ethanolamine dihydrochloride thereto. By the above steps until this, preparation of a CM5 sensor tip which can measure the dissociation constant KD was completed.
Next, each of anti-IL-3Rα antibodies, was diluted to give a concentration of 5 μg/ml with HBS-FP buffer (GE) one kind per one flow cell and applied, thereby allowing it to bind to the immobilized anti-human antibody antibody or anti-mouse antibody antibody. Next, the soluble form of IL-3Rα protein was applied thereto. In order to dissociate the bound anti-IL-3Rα antibody and soluble form of IL-3Rα protein, 3 M MgCl₂ attached to Human Antibody Capture Kit or pH 1.7 of Glycine-HCl attached to Mouse Antibody Capture Kit was applied in the amount attached to the kit. The steps until this were regarded as one step. By repeating the same steps using two or more concentrations of the soluble form of IL-3Rα protein, data for calculating association and dissociation constants (sensorgram) were obtained.
In the analysis, Biaevaluation software (GE) was used and Biaevaluation Software Handbook was referred. Specifically, by carrying out simultaneous analysis of kinetics analysis, employing basically the 1:1 Langmuir binding reaction model and fitting, association rate constant (Ka) and dissociation rate constant (Kd) were calculated, and the value of dissociation constant KD was calculated by the calculation of Kd/Ka.

In general, Kd refers to the constant that tells how readily two partners part at equilibrium. Low values mean a tighter complex, high ones a looser complex.

B1: Old19 anti-human IL-3Rα human antibody (antibody, human IgG1, V domains shown)
VH: QVQLVQSGAEVKKPGSSVKVSCKASGGTFSSYAISWVRQAPGQGLEWVGGIIPIFGTANYAQKFQGRVTITADESTSTAYMELSSLRSEDTAVYYCARGHKYGPYYFDYWGQGTLVTVSS
VL: DIQMTQSPSSLSASVGDRVTITCRASQGISSWLAWYQQKPEKAPKSLIYAASSLQSGVPSRFSGSGSGTDFTLTISSLQPEDFATYYCQQYNSYPRTFGQGTKVEIK
notes: Human antibody; recombinant form in N5KG1-Val Lark vector (human IgG1, kappa)
In the case of B1, the binding result in test [1] and in test [2] was “no binding (tested: 1 µg/ml)” each time. The molecule further registered a Kd in test [3] of 3.24 nM.
